Test results from patent publication US12545899B2, “Luciferase enzymes for use with thermostable luciferins in bioluminescent assays” (Promega Corporation, priority 2018, dated 2026).

Tests used:
Assay type in all cases: biochemical
[1] = Kinetic analysis of thermostable variants with CS0333 (Tables 13, 14); details: 2 mM ATP
Description: (§1) Tables 13 and 14 include representative results of kinetic analysis of the thermostable variants with D/L luciferin, CS0333, and CS0280. The panel of enzyme variants highlight amino acid substitutions that further improve upon MK0137 in maximum luminescence (Vmax) or Km in different buffers with the different substrates tested (D/L-luciferin, CS0333, and CS0280). In particular, enzyme variants MK0151 and MK153 show improvements relative to MK0137 across multiple buffers with multiple substrates.

[2] = Luminescence at 1 mM D/L-luciferin (Table 11); details: 1 mM substrate, 1 mM ATP
Description: (§2) Tables 10 and 11 include representative results of kinetic analysis of the thermostable variants with D/L luciferin, CS0333, and CS0280. […] MK0135 and MK0137 have amino acid substitutions that improve thermostability relative to MK0133 and MK0134, respectively, while retaining activity on the luciferin analogs CS0333 and CS0280.

[3] = Kinetic analysis of thermostable variants with D/L-luciferin (Tables 13, 14); details: 2 mM ATP
Description: as §1

[4] = Kinetic analysis of thermostable variants with CS0280 (Tables 13, 14); details: 2 mM ATP
Description: as §1

[5] = Luminescence at 1 mM CS0333 (Table 11); details: 1 mM substrate, 1 mM ATP
Description: as §2

[6] = Luminescence at 1 mM CS0280 (Table 11); details: 1 mM substrate, 1 mM ATP
Description: as §2

Molecule | Km ([1]; BrightGlo Buffer) | Vmax (RLU) ([1]; BrightGlo Buffer) | Km ([1]; Detection Reagent Buffer) | Vmax (RLU) ([1]; Detection Reagent Buffer) | Vmax (RLU) D/L-luciferin BrightGlo Buffer [2] | Vmax (RLU) D/L-luciferin Detection Reagent Buffer [2] | Km ([3]; BrightGlo Buffer) | Vmax (RLU) ([3]; BrightGlo Buffer) | Km ([3]; Detection Reagent Buffer) | Vmax (RLU) ([3]; Detection Reagent Buffer) | Km ([4]; BrightGlo Buffer) | Vmax (RLU) ([4]; BrightGlo Buffer) | Km ([4]; Detection Reagent Buffer) | Vmax (RLU) ([4]; Detection Reagent Buffer) | Vmax (RLU) CS0333 BrightGlo Buffer [5] | Vmax (RLU) CS0333 Detection Reagent Buffer [5] | Vmax (RLU) CS0280 BrightGlo Buffer [6] | Vmax (RLU) CS0280 Detection Reagent Buffer [6]
MK0153: SEQ ID NO: 118; H244W+S193A+N228D+L305F+S306P+I109V+C38R+F55I+Y108F+A316W+Y339M+T342S+V348I+T289S+K353R+D435G+W510R (protein) MADKNILYGPEPFYPLEDGTAGEQMFDALSRYAAIPGRIALTNAHTKENVLYEEILKLSCRLAESFKKYGLKQNDTIAVCSENSLQFFLPVIASLYLGIIVAPVNDKFVERELIHSLGIVKPRIVFCSKNTFQKVLNVKSKLKSIETIIILDLNEDLGGYQCLNNFISQNSDSNLDVKKFKPYSFNRDDQVAAIMFSSGTTGLPKGVMLTHKNIVARFSIAKDPTFGDAINPTSAILTVIPFHWGFGMMTTLGYFTRGFRVVLMHTFEEKLFLQSLQDYKVESTLLVPSLMAFLAKSALVEKYDFPHLKEIATGGWPLSKEIGEMVKKRFKLNFVRQGMGLSETTSAILITPRGDAKPGSTGKIVPLHAVKVVDPTTGKILGPNEPGELYFKGPMIMKGYYNNEEATKAIIDNDGWLRSGDIAYYDNDGHFYIVDRLKSLIKYKGYQVAPAEIEGILLQHPYIVDAGVTGIPDEAAGELPAAGVVVQTGKYLNEQIVQDYVASQVSTAKWLRGGVKFLDEIPKGSTGKIDRKVLRQMLEKHTNGHHHHHHHH | 6.66 µM | 4,114,986 RLU | 22 µM | 822,270 RLU | 509,406 RLU | 78,859 RLU | 0.176 µM | 1,081,804 RLU | 0.435 µM | 75,581 RLU | 7.71 µM | 1,098,792 RLU | 474 µM | 88,269 RLU | 3,768,010 RLU | 2,570,070 RLU | 1,803,730 RLU | 90,671 RLU
MK0155: SEQ ID NO: 120; H244W+S193A+N228D+L305F+S306P+I109V+C38R+F55I+Y108F+A316W+Y339M+T342S+V348I+T284A+S313T+K353R+L437R+W510R (protein) MADKNILYGPEPFYPLEDGTAGEQMFDALSRYAAIPGRIALTNAHTKENVLYEEILKLSCRLAESFKKYGLKQNDTIAVCSENSLQFFLPVIASLYLGIIVAPVNDKFVERELIHSLGIVKPRIVFCSKNTFQKVLNVKSKLKSIETIIILDLNEDLGGYQCLNNFISQNSDSNLDVKKFKPYSFNRDDQVAAIMFSSGTTGLPKGVMLTHKNIVARFSIAKDPTFGDAINPTSAILTVIPFHWGFGMMTTLGYFTCGFRVVLMHTFEEKLFLQSLQDYKVESALLVPTLMAFLAKSALVEKYDFPHLKEIATGGWPLSKEIGEMVKKRFKLNFVRQGMGLSETTSAILITPRGDAKPGSTGKIVPLHAVKVVDPTTGKILGPNEPGELYFKGPMIMKGYYNNEEATKAIIDNDGWLRSGDIAYYDNDGHFYIVDRRKSLIKYKGYQVAPAEIEGILLQHPYIVDAGVTGIPDEAAGELPAAGVVVQTGKYLNEQIVQDYVASQVSTAKRLRGGVKFLDEIPKGSTGKIDRKVLRQMLEKHTNGHHHHHHHH | 7.88 µM | 1,487,388 RLU | 126 µM | 301,956 RLU | 851,342 RLU | 74,704 RLU | 0.0804 µM | 550,291 RLU | 0.527 µM | 22,671 RLU | 8.07 µM | 570,972 RLU | 798 µM | 32,480 RLU | 3,609,390 RLU | 1,400,780 RLU | 4,644,970 RLU | 62,606 RLU
MK0154: SEQ ID NO: 119; H244W+S193A+N228D+L305F+S306P+I109V+C38R+F55I+Y108F+A316W+Y339M+T342S+V348I+C257R+T284A+T289S+S313T+K353R+D435G+L437R+W510R (protein) MADKNILYGPEPFYPLEDGTAGEQMFDALSRYAAIPGRIALTNAHTKENVLYEEILKLSCRLAESFKKYGLKQNDTIAVCSENSLQFFLPVIASLYLGIIVAPVNDKFVERELIHSLGIVKPRIVFCSKNTFQKVLNVKSKLKSIETIIILDLNEDLGGYQCLNNFISQNSDSNLDVKKFKPYSFNRDDQVAAIMFSSGTTGLPKGVMLTHKNIVARFSIAKDPTFGDAINPTSAILTVIPFHWGFGMMTTLGYFTCGFRVVLMHTFEEKLFLQSLQDYKVESALLVPSLMAFLAKSALVEKYDFPHLKEIATGGWPLSKEIGEMVKKRFKLNFVRQGMGLSETTSAILITPKGDAKPGSTGKIVPLHAVKVVDPTTGKILGPNEPGELYFKGPMIMKGYYNNEEATKAIIDNDGWLRSGDIAYYDNDGHFYIVDRLKSLIKYKGYQVAPAEIEGILLQHPYIVDAGVTGIPDEAAGELPAAGVVVQTGKYLNEQIVQDYVASQVSTAKRLRGGVKFLDEIPKGSTGKIDRKVLRQMLEKHTNGHHHHHHHH | 10.6 µM | 1,706,369 RLU | 230 µM | 409,320 RLU | 2,583,340 RLU |  | 0.108 µM | 2,997,269 RLU | 0.356 µM | 342,134 RLU | 41.7 µM | 449,576 RLU | 954 µM | 24,533 RLU | 2,374,950 RLU | 854,223 RLU | 809,566 RLU | 22,493 RLU
